Results reported in paper PMC8916002 (Proceedings of the National Academy of Sciences of the …, 2022).
Blank lines part the entries; values can stand above or below the molecule they belong to.

Tests used:
[1] = test system: JPH1; assay: Cocrystallization of JPH1 with phospholipids; assay type: binding, human; settings: high ionic strength
[2] = biological target: T1, JPH1 (1 to 175, 265 to 442) (human, UniProt Q9HDC5 1-175; Q9HDC5 265-442); assay: ITC
T1 chain (looked up): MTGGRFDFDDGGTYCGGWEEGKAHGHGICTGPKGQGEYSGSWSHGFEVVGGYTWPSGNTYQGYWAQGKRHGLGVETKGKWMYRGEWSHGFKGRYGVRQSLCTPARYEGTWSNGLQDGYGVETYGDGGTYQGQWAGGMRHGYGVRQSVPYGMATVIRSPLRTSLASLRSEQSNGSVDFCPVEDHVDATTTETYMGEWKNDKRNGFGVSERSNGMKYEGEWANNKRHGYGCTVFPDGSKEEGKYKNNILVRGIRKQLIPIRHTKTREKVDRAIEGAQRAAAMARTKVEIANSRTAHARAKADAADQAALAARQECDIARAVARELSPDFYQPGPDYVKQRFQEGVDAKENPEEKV

[3] = biological target: T2, JPH2 (1 to 161, 275 to 437) (human, UniProt Q9BR39-1 1-161; Q9BR39-1 275-437); assay: ITC
T2 chain (looked up): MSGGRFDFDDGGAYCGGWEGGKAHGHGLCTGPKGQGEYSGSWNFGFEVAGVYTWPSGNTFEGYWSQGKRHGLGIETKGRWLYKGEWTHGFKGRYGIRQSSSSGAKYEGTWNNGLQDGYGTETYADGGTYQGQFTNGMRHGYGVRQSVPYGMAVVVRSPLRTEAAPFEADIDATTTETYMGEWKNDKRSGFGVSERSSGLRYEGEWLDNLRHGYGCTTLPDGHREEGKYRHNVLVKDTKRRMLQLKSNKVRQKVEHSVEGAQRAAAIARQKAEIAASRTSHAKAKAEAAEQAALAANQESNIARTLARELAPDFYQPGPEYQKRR

[4] = biological target: T3, MBP-tagged JPH2 (1 to 161, 275 to 437) (human, UniProt Q9BR39-1 1-161; Q9BR39-1 275-437); assay: ITC
T3 chain (looked up): T2 chain (looked up)

Molecule: CCCCCC(=O)OC[C@H](COP(=O)(O)OC[C@H](N)C(=O)O)OC(=O)CCCCC [6:0 PS]
ligand electron density in JPH1 crystals ([1]; 2 mM 6:0 PS, diffraction data to 1.9 Å): no significant difference density could be identified
ligand electron density in JPH1 crystals ([1]; 2 mM 6:0 PS, diffraction data to 1.9 Å, listed as PS): could not observe any density for a bound ligand

Molecule: CCCCCCCC(=O)OC[C@H](COP(=O)(O)O[C@@H]1[C@H](O)[C@H](O)[C@@H](OP(=O)(O)O)[C@H](OP(=O)(O)O)[C@H]1O)OC(=O)CCCCCCC [8:0 PI(4,5)P2]
ligand electron density in JPH1 crystals ([1]; 500 μM 8:0 PI(4,5)P2, diffraction data to 2.0 Å): no significant difference density could be identified

Kd [2]: 1 to 2 µM
stoichiometry N [2]: 1
stoichiometry N [3]: 1
Kd [4]: 1.8 µM
B1: CaV1.1 peptide (rabbit CaV1.1 residues 1594 to 1609) (peptide, UniProt P07293 1594-1609, looked up)
peptide: EERIFRRTGGLFGQVD
